Data published in patent publication US20090068207A1, “Compositions Containing Beta 2-Glycoprotein I-Derived Peptides for the Prevention and/or Treatment of Vascular Disease” (Vascular Biogenics Ltd., priority 2005, published 2009).

Assays:
Assay type in all cases: in vivo
LDL-RD mice [1] = assay: Aortic sinus lesion area after oral administration, Western diet; conditions: for Aortic sinus lesion (μm^2): End, mean ± S.E
Procedure: Oral Tolerance: For comparison, oral tolerance to plaque-associated molecules was induced by feeding […] of antigen every other day (for a detailed account of induction of oral tolerance, see U.S. patent application Ser. No. 09/806,400 to Shoenfeld et al filed Sep. 30, 1999), in a similar regimen to the nasal tolerance. LDL-RD mice were fed by a nasogastric tube, five doses (every other day) of human or bovine β2GPI in PBS in two different concentrations (500 and 50 μg/dose).
Oral tolerance to β2GPI-derived peptides, alone or in combination was induced by feeding 100 μg of the peptides (prepared in PBS, 0.2 ml), as detailed hereinabove, every other day for a total of 5 doses of 100 μg. One day following the last feeding, all mice were switched from chow-diet to an atherogenic “Western” diet and sacrificed five weeks later.
(§1) Assessment of Atherosclerosis: Quantification of atherosclerotic fatty streak lesions was done by calculating the lesion size in the aortic sinus as previously described (16) and by calculating the lesion size in the aorta. Briefly, after perfusion with saline Tris EDTA, the heart and the aorta were removed from the animals and the peripheral fat cleaned carefully. The upper section of the heart was embedded in OCT medium (10.24% w/w polyvinyl alcohol; 4.26% w/w polyethylene glycol; 85.50% w/w nonreactive ingredients) and frozen. Every other section (10 μm thick) throughout the aortic sinus (400 μm) was taken for analysis. The distal portion of the aortic sinus was recognized by the three valve cusps that are the junctions of the aorta to the heart. […] Lesion areas per section were scored on a grid (17) by an observer counting unidentified, numbered specimens. The aorta was dissected from the heart and surrounding adventitious tissue was removed. Fixation of the aorta and Sudan staining of the vessels were performed as previously described (21).
LDL-receptor deficient (LDL-RD; LDLR −/−) mice created on a C57BL/6 background develop accelerated atherosclerosis when fed a high cholesterol diet, but not when fed a regular chow diet. In order to determine whether mucosal administration of the plaque antigen β2GPI could suppress atherogenic processes, LDL-RD mice were fed low, oral tolerance inducing doses of human and bovine β2GPI, and the assessed for alterations in response to diet.

LDL-RD mice [2] = assay: Aortic sinus lesion area after nasal tolerance induction, Western diet; conditions: End, mean ± S.E
Procedure: Nasal Tolerance: Nasal tolerance was induced by intranasal administration of oxidized LDL, β2GPI, β2GPI-derived peptides or HSP65, in a total volume of 10 μl PBS. Intranasal administration was performed on mildly sedated mice (12-16 weeks old), each mouse receiving 3 doses of antigen per dose, in the indicated concentrations, every other day. Atherogenesis was induced by 5 weeks of a Western diet initiated on the day following the last intranasal administration, or assessed (in Apo E KO mice) after 8 weeks on a chow diet. Controls received equal amounts of BSA and/or PBS, as indicated, in an identical regimen. Plasma was obtained for assessment of cholesterol and triglyceride levels from all mice, and the mice were sacrificed for evaluation of atherosclerosis, as described hereinbelow, after 5 weeks Western diet, or (in Apo E KO mice) after 8 weeks on a chow diet.
Assessment of Atherosclerosis: Quantification of atherosclerotic fatty streak lesions was done by calculating the lesion size in the aortic sinus as previously described (16) and by calculating the lesion size in the aorta. Briefly, after perfusion with saline Tris EDTA, the heart and the aorta were removed from the animals and the peripheral fat cleaned carefully. The upper section of the heart was embedded in OCT medium (10.24% w/w polyvinyl alcohol; 4.26% w/w polyethylene glycol; 85.50% w/w nonreactive ingredients) and frozen. Every other section (10 μm thick) throughout the aortic sinus (400 μm) was taken for analysis. The distal portion of the aortic sinus was recognized by the three valve cusps that are the junctions of the aorta to the heart. Sections were evaluated for fatty streak lesions after processing and staining with oil-red O, according to Paigen et al (Atherosclerosis, 1987; 68:231-40). Lesion areas per section were scored on a grid (17) by an observer counting unidentified, numbered specimens. The aorta was dissected from the heart and surrounding adventitious tissue was removed. Fixation of the aorta and Sudan staining of the vessels were performed as previously described (21).
Mice were bled prior to feeding (Time 0) and at the conclusion of the experiment (End) for determination of lipid profile. Atherosclerosis was assessed in heart and aorta as described above, 8 weeks after the last feeding. Mice were weighed every 2 weeks during the experiment. All mice were fed water ad libitum and a normal chow-diet containing 4.5% fat by weight (0.02% cholesterol), up to the final antigen exposure, and then a “Western” diet until sacrifice.
Thus, nasal exposure to a low dose and an exceedingly low dose of recombinant human HSP 65 were compared for their effectiveness in suppressing atherogenesis in LDL-RD mice. 58 male 12-16 week old LDL-RD mice were divided into 4 groups.

ApoE-KO mice = assay: Aortic sinus lesion area after oral administration in ApoE-KO mice; conditions: End t = 16 wks; oral 50 μg/mouse; ApoE-KO mice; mean ± S.E
From the text: as §1
In order to determine the protective effect of mucosal administration of β2GPI on development of atherosclerosis, adult ApoE-KO mice were treated with oral administration of human β2GPI. 20 week-old male ApoE-KO mice, having advanced atherosclerotic lesions were treated monthly with human β2GPI (50 μg/dose) or PBS (0.2 ml) in 5 oral administrations (by gavage, as described hereinabove) given every other day, for four months. Lesion area calculated from cryosections of the aortic sinus were compared between control untreated 20 week old mice, and mice following 16 weeks oral administration of β2GPI or PBS.
10-11 week-old male ApoE-KO mice, having early atherosclerotic lesions, were treated with 5 oral administrations (by gavage, as described hereinabove) given every other day of human β2GPI peptide S-4 (SEQ ID NO: 14) or human β2GPI (50 μg/dose) or PBS (0.2 ml). Lesion areas calculated from cryosections of the aortic sinus were compared between control untreated, human β2GPI treated and S-4 human β2GPI-derived peptide treated mice at 8 weeks following the last oral administration of the antigens, or of PBS.

B1: B-β2 GPI: bovine beta2-glycoprotein I purified from serum (protein, UniProt P17690 20-345, looked up)
Beta-2-glycoprotein 1: GRTCPKPDELPFSTVVPLKRTYEPGEQIVFSCQPGYVSRGGIRRFTCPLTGLWPINTLKCMPRVCPFAGILENGTVRYTTFEYPNTISFSCHTGFYLKGASSAKCTEEGKWSPDLPVCAPITCPPPPIPKFASLSVYKPLAGNNSFYGSKAVFKCLPHHAMFGNDTVTCTEHGNWTQLPECREVRCPFPSRPDNGFVNHPANPVLYYKDTATFGCHETYSLDGPEEVECSKFGNWSAQPSCKASCKLSIKRATVIYEGERVAIQNKFKNGMLHGQKVSFFCKHKEKKCSYTEDAQCIDGTIEIPKCFKEHSSLAFWKTDASDVKPC
Aortic sinus lesion (μm^2) (LDL-RD mice [1]; oral 50 μg): 27422 ± 3007 μm^2 | Aortic sinus lesion (μm^2) (LDL-RD mice [1]; oral 500 μg): 20781 ± 2290 μm^2 | reduction of atherosclerosis as compared with BSA-fed controls (LDL-RD mice [1]; oral 50 μg/dose): 57% | reduction of atherosclerosis as compared with BSA-fed controls (LDL-RD mice [1]; oral 500 μg/dose): 43%

B2: HSP65: recombinant human HSP 65 according to Example 2 and Table 2 (protein, UniProt P10809 27-573, looked up)
60 kDa heat shock protein, …: AKDVKFGADARALMLQGVDLLADAVAVTMGPKGRTVIIEQSWGSPKVTKDGVTVAKSIDLKDKYKNIGAKLVQDVANNTNEEAGDGTTTATVLARSIAKEGFEKISKGANPVEIRRGVMLAVDAVIAELKKQSKPVTTPEEIAQVATISANGDKEIGNIISDAMKKVGRKGVITVKDGKTLNDELEIIEGMKFDRGYISPYFINTSKGQKCEFQDAYVLLSEKKISSIQSIVPALEIANAHRKPLVIIAEDVDGEALSTLVLNRLKVGLQVVAVKAPGFGDNRKNQLKDMAIATGGAVFGEEGLTLNLEDVQPHDLGKVGEVIVTKDDAMLLKGKGDKAQIEKRIQEIIEQLDVTTSEYEKEKLNERLAKLSDGVAVLKVGGTSDVEVNEKKDRVTDALNATRAAVEEGIVLGGGCALLRCIPALDSLTPANEDQKIGIEIIKRTLKIPAMTIAKNAGVEGSLIVEKIMQSSSEVGYDAMAGDFVNMVEKGIIDPTKVVRTALLDAAGVASLLTTAEVVVTEIPKEEKDPGMGAMGGMGGGMGGGMF
Aortic sinus lesion (μm^2) (LDL-RD mice [2]; intranasal 1 μg/mouse): 17109 ± 2053 μm^2 | Aortic sinus lesion (μm^2) (LDL-RD mice [2]; intranasal 10 μg/mouse): 22292 ± 2691 μm^2

B3: B-β2GPI: head of Table 5; text and footnote say human β2GPI, 50 μg/mouse orally (protein, UniProt P02749 20-345, looked up)
Beta-2-glycoprotein 1: GRTCPKPDDLPFSTVVPLKTFYEPGEEITYSCKPGYVSRGGMRKFICPLTGLWPINTLKCTPRVCPFAGILENGAVRYTTFEYPNTISFSCNTGFYLNGADSAKCTEEGKWSPELPVCAPIICPPPSIPTFATLRVYKPSAGNNSLYRDTAVFECLPQHAMFGNDTITCTTHGNWTKLPECREVKCPFPSRPDNGFVNYPAKPTLYYKDKATFGCHDGYSLDGPEEIECTKLGNWSAMPSCKASCKVPVKKATVVYQGERVKIQEKFKNGMLHGDKVSFFCKNKEKKCSYTEDAQCIDGTIEVPKCFKEHSSLAFWKTDASDVKPC
Aortic sinus lesion (μm^2) (ApoE-KO mice): 221042 ± 14472 μm^2
